Experimental data from the supplement of paper PMC12042874.
± gives the uncertainty stated by the source.

Assay: amyloid nucleation score (Sup35N fusion, yeast selection) (log enrichment); library NNK1; higher = more nucleation; inactive = no reads after selection
In short: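 Nucleation score is defined as the DiMSum log enrichment of output over input reads, with centring on the mode score of non-aggregating sequences. A minimum of 100 input reads was required for each sequence. Reads came from Illumina sequencing of plasmid inserts from psi-negative yeast expressing Sup35N fused to peptides of 20 random codons, induced with 100 μM copper sulfate for 24 hours and grown 7 days at 30°C on medium lacking adenine and uracil.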

| Substance | amyloid nucleation score |
| --- | --- |
| EGMAARSWDCMYVWG | 0.35 ± 0.42 |
| EGRYTRDFKCRFSSERHSPS | 0.014 ± 0.47 |
| EGSIMRGWLFICYNLF | -0.244 ± 0.93 |
| EHKWAANLDDMVHLDRHNMQ | 0.435 ± 0.72 |
| EILIYNNYETFLVSFFEYGG | 4.21 ± 0.083 |
| EIVSIS | -0.42 ± 1.2 |
| EKLTKTYGTRFNKVKLFL | 0.294 ± 0.41 |
| EKQCVVDFL | -1.26 ± 1.7 |
| EKRFFVSLVNVYLDL | 4.57 ± 0.071 |
| EKWKKAAIWFFLSYWLAVWR | -0.301 ± 1.2 |
| ELFSAIPATIHCI | -0.057 ± 1.1 |
| ELGGVWN | 0.701 ± 0.58 |
| ELLQD | 0.038 ± 0.59 |
| ELSNRVRTEFVCIRTLVEDN | inactive |
| ELTLGLCSYSVRRSCGEGSW | 6.62 ± 0.082 |
| ELTYFGNI | 1.5 ± 0.24 |
| EMALKVVMWC | inactive |
| EMIMVGSMYSRGNSTCFPRA | 0.777 ± 0.17 |
| EMRLCRPCREYLLKSPT | 0.31 ± 0.37 |
| EMTPLLCATVRKPWKRVMIN | -0.311 ± 0.73 |
| ENHSECNWRKCQQTLISHEC | 0.487 ± 0.71 |
| ENLVFTY | 0.01 ± 0.28 |

| Substance | amyloid nucleation score |
| --- | --- |
| ENNTGSVETLYRCSEKLVLE | 0.228 ± 0.27 |
| ENTVDPLRLDWCSGTSVWYK | 0.54 ± 0.88 |
| ENVAITMVLPSAKMGSYMDG | 0.453 ± 1.2 |
| ENVYGWVG | 1.09 ± 0.15 |
| EPIVLTVCCFSPKDVSQDLN | 0.749 ± 0.56 |
| EPVYISDWWTACEVADHVSL | inactive |
| EQFNT | 0.323 ± 0.56 |
| EQVSKMGNTCMSVDRVRWQN | -0.411 ± 0.87 |
| ERKRTFY | 0.536 ± 0.41 |
| ERRQSEKPGLLPSWS | 0.46 ± 1.2 |
| ERVGAGVGSNERRD | 0.646 ± 0.89 |
| ERYRFRGIKLHRGDSWRDIC | 1.14 ± 0.71 |
| ESCVRYRSACSMFV | 0.902 ± 0.47 |
| ESFLASMLRIGMCLPKQVMW | -0.096 ± 0.66 |
| ESHMRNHR | 0.312 ± 0.37 |
| ESHRRR | 0.569 ± 0.62 |
| ESMDGFARR | 0.654 ± 0.67 |
| ESRKYWVNMVIGQDDRLVHP | inactive |
| ESSGTFFP | -0.186 ± 0.9 |
| ESSNSLL | -0.244 ± 0.4 |
| ETFNWLSCIVRRSQKYAEET | -0.242 ± 1.2 |
| ETFPYMRMYARALSRT | 0.369 ± 0.39 |

| Substance | amyloid nucleation score |
| --- | --- |
| ETRANGVESFSTDLYMHFLD | 1.16 ± 0.36 |
| EVATGSGERIQLCQVQSVNT | 1.6 ± 0.55 |
| EVENRFVCGNSDLSGNDANK | -0.489 ± 0.75 |
| EVPMVFRGNEGVSRDCSLVG | -0.469 ± 0.42 |
| EVVFNYTKHQVTIAV | inactive |
| EYLSDDGI | 0.131 ± 0.28 |
| EYNQG | -0.76 ± 1.2 |
| FACSFQSNLLDKKYTSLVNL | 0.051 ± 0.55 |
| FAEFKDICMRE | 0.978 ± 0.74 |
| FAGSSGRCTPGSGFQGSIVT | -0.167 ± 0.33 |
| FAKVESLLWAGICTGRDEVM | -0.318 ± 0.46 |
| FAMTNFRYDLPQTHPLPRAV | -0.679 ± 0.54 |
| FASLFYKLQASLFTLDNIMH | -0.006 ± 0.88 |
| FCDILQVLVCYGLLKRVLKV | -0.296 ± 0.3 |
| FCKCNQVFISCLCGSTKHTG | 3.59 ± 0.1 |
| FCLFKFDCSLSWPQVYRYRL | 1.09 ± 0.36 |
| FCLSMVVDWVGR | -0.342 ± 0.31 |
| FCMVDYWVLVPCDEIGTDVV | 0.116 ± 0.46 |
| FCMWKGAFDRDYVGNGVAGS | inactive |
| FCNTLCAFW | 1.91 ± 0.22 |
| FCNVQIFFAVITHPFYSTLL | 1.48 ± 0.24 |
| FCSLGKFGSRKCF | 1.07 ± 0.61 |

| Substance | amyloid nucleation score |
| --- | --- |
| FCSYLFMLATTLHQAWFHF | 1.1 ± 0.72 |
| FCVSTRRWGRAEYKRMDLLW | 0.077 ± 1 |
| FCVWIGKEGD | 0.442 ± 0.51 |
| FCYIDMEFSFCLLSAEFISV | 0.03 ± 0.53 |
| FDCVMLISHHCVILCCFSDM | 0.205 ± 1.1 |
| FDECGAGLLPTG | -0.198 ± 0.41 |
| FDGKLW | -0.53 ± 0.61 |
| FDIDDIICIM | -1.89 ± 1.4 |
| FDIMNDIK | 0.658 ± 0.52 |
| FDKGVSIRPSAWRDPRVWPS | 0.417 ± 0.47 |
| FDRHPGTYCDVKLLCREHSA | inactive |
| FDSRRGEGALMSNDSSCERG | -0.185 ± 0.69 |
| FDVMKFYIYLGYSVVPVM | -1.09 ± 0.43 |
| FDYLCSGGMSTILSCITFPL | -0.37 ± 0.9 |
| FEAFFNGHSSREYLVISVRL | 0.153 ± 1.2 |
| FEFIVMEIAC | -0.189 ± 0.35 |
| FEIMQPNAHISCHYCYLVNM | 5.01 ± 0.059 |
| FEQCPIFRRGRLLRSNAVCA | -0.145 ± 0.33 |
| FEYNRYRLLYTTYLGPVGGI | -1.56 ± 0.64 |
| FEYVIPRVTKIVRSTDRRGS | -0.548 ± 1.7 |
| FFCEIVMYGWSIM | 2.97 ± 0.14 |
| FFHNTSHASYIK | 1.09 ± 0.13 |

| Substance | amyloid nucleation score |
| --- | --- |
| FFIETVYATKNYKHW | 2.76 ± 0.11 |
| FFIGFIL | 1.59 ± 0.21 |
| FFLILRVRLYCTSICQAYAN | 0.451 ± 0.48 |
| FFNCFLLDNNYVSLYLWSKD | 6.832 ± 0.068 |
| FFWEY | -0.312 ± 1.5 |
| FGAVVADGMKLFSVSFS | -0.711 ± 0.52 |
| FGFFWV | 0.099 ± 0.7 |
| FGFMKKRRDLSY | 2.96 ± 0.091 |
| FGFSKWSSMLIRHQPYDLFI | -1.1 ± 1 |
| FGHKKPVGLTGLNGFSGTGV | 1.91 ± 0.63 |
| FGINVVRGKCRVRSLKDIDS | -0.086 ± 0.48 |
| FGLADITWKLPPQGSTWRLT | -0.108 ± 0.95 |
| FGLIATTETRAVSKMNVFDN | 1.56 ± 0.49 |
| FGLIGTPCERMVSGLEV | -0.806 ± 0.88 |
| FGLIVQTIMFRWHQKGSNFE | -1.05 ± 2.7 |
| FGLQWSSKAACVLTCKQSLR | inactive |
| FGLVAGRR | -0.188 ± 1.2 |
| FGLYFRKISGLSPN | -0.211 ± 0.67 |
| FGPCMRFDCCNRGST | 4.72 ± 0.082 |
| FGYSAGHERMVHCVGLRSSG | 1.37 ± 0.69 |
| FGYYFVNGIFLYSSVRYDNM | 3.63 ± 0.076 |
| FHASATRTFIVFCIC | 0.556 ± 0.38 |

| Substance | amyloid nucleation score |
| --- | --- |
| FHFKFSSLLIVSFVLGFCLV | 0.027 ± 1.7 |
| FHHCFIQTSSDAVSSGLDFE | 0.644 ± 0.78 |
| FHHTKSGS | 1.67 ± 0.57 |
| FHIRWE | inactive |
| FHVSDV | -0.125 ± 0.98 |
| FIFSAVGRNN | -0.411 ± 0.57 |
| FIHAMAMCILGEHSI | 0.686 ± 0.47 |
| FIHSRE | 0.366 ± 0.31 |
| FIHVVAFWRLSRDSY | 0.467 ± 0.55 |
| FIIITYFGLGKTVYARRKCC | -1.92 ± 2.7 |
| FILSEFSNRF | 0.104 ± 0.34 |
| FINVAFGCVYVRTNCLRMEG | 7.116 ± 0.059 |
| FIQNGV | 0.659 ± 0.79 |
| FIQNKVLVFQSNSTNDLLFP | 6.071 ± 0.058 |
| FIVHANWQSFYFLLRLMVF | -0.109 ± 1 |
| FIVLAYCLSFWVAIYPEVHM | 0.581 ± 0.73 |
| FIYLENAS | 0.532 ± 0.38 |
| FKIFD | 1.15 ± 0.81 |
| FKKNKQSSVKFGSNKSLQIG | 0.027 ± 0.51 |
| FKMSWSTPARYNNGLTRLIF | -0.379 ± 0.63 |
| FKRLNRFYRSLAIMTSTSHL | -0.149 ± 0.69 |
